Data from US20250027068.
Where a chain is given by its changes, count along the chain named.

B1: PRT-640 (protein)
chain: MQITSVWTKGVTPLTPEQFRYNNEDVIHAPYLAHQGWYDITKTFNGKDNLLCGAATAGNMLHWWFDQNKTEIEAYLSKHPEKQKIIFNNQELFDLKAAIDTKDSQTNSQLFNYFRDKAFPNLSARQLGVMPDLVLDMFINGYYLNVFKTQSTDVNRPYQDKDKRGGIFDAVFTRGDQTTLLTARHDLKNKGLNDISTIIKQELTEGRALALSHTYANVSISHVINLWGADFNAEGNLEAIYVTDSDADEKIGMKKYFVGINAHGHVAISAKKIEGENIGAQVLGLFTLSSGKDIWQKLSLEHHHHHH
B2: PRT-634 (protein)
chain: B1 chain with E24Y, L32K, A33P, H34N, T43A, N45D, R207K, D248N, E249A, K250S
B3: PRT-665 (protein)
chain: MQITSVWTKGVTPPTPEQFRYNNEDVIHAPYLAHQGWYDITKAFDGKDNLLCGAATAGNMLHWWFDQNKTEIEAYLSKYPEKQKIIFNNQELFDLRAAINTKDSQTNSQLFNYFRDKAFPNLSARQLGVMPDLVLDMFINGYYLNVFKTQSTDVNRPYQDKDKRGGIFDAVFTRGDQTTLLTARHDLSNKGLNDISTIIKQELTEGRALALSHTYANVSISHVINLWGADFNAEGNLEAIYVTDSDSNASIGMKKYYVGINASGHVAISAKKIEGEVIGAQVLGLFTLSSGKEIWQKLSLEHHHHHH
B4: PRT-632 (protein)
chain: MQITSVWTYGVTPLTPEQFRYNNYEVIHAPYKEGQGWYDITKAFDGKDNLLCGAATAGNMLHWWFDQNKTEIEAYLSKHPEKQKIIFNNQELFDLKAAIDTKDSQTNSQLFNYFRDKAFPNLSARQLGVMPDLVLDMFINGYYLNVFKTQSTDVNRPYQDKDKRGGIFDAVFTRGDQTTLLTARHDLKNKGLNDISTIIKQELTEGRALALSHTYANVSISHVINLWGADFNAEGNLEAIYVTDSDANASIGMKKYFVGINAHGHVAISAKKIEGENIGAQVLGLFTLSSGKDIWQKLSLEHHHHHH
B5: PRT-691 (protein)
chain: MQITTVWTKGVTPPTPEQFRYNNEDVIHAPYLPNQGWYDITKTFNGKDNLLCGAATAGNMLHWWFDQNKTEIEAYLSKYPEKQKIIFNNQELFDLRAAINTKDSQTNSQLFNYFRDKAFPNLSARQLGVMPDLVLDMFINGYYLNVFKTQSTDVNRPYQDRDKRGGIFDAVFNRGDQTTLLTARHDLKNKTLNDISTLIKQELSSGKALALSHTYANVSISHVINLWGADFNAEGNLEAIYVTDSDANASIGMKKYYVGVNAHGKVAISAKKIEGENIGAQVLGLFTLSSGKDIWQKLSLEHHHHHH
B6: PRT-563 (protein)
chain: MANQEIRYSEATPSHITSVWTKGVTPPTQFIQNEDVLHAPYIANQGWYDITKTFNGKDDLLCGAATAGNMLHWWFDQNKTQIENYLKKHPEKQKINFNGEQMFDVKEAIDTKDSQTDSALFSYFKDKAFPYLSTKHLGVFPDHVIDMFINGYRLSLTNHGPTPVKRQTKDPRGGIFDAVFTRGDQSKLLTARHDFKEKTLNEISQLIKQELTEGKALGLSHTYANVRINHVINLWGADFNAEGNLEAIYVTDSDSNASIGMKKYYVGVNAAGKVAISAKEIEGDNIGAQVLGLFTLSTGQDIWQQTNLEHHHHHH
B7: PRT-630 (protein)
chain: MQITSVWTKGVTPLTPEQFRYNNEDVIHAPYLAHQGWYDITKAFDGKDNLLCGAATAGNMLHWWFDQNKEEIENYLKKYPEKQKIIFNNQELFDLKAAIDTKDSQTNSQLFNYFRDKAFPNLSARQLGVMPDLVLDMFINGYYLNVFKTQSTDVNRPYQDKDKRGGIFDAVFTRGDQTTLLTARHDLKNKGLNDISTIIKQELTEGRALALSHTYANVSISHVINLWGADFNAEGNLEAIYVTDSDANASIGMKKYFVGINAHGHVAISAKKIEGENIGAQVLGLFTLSSGQEIWEQLSLEHHHHHH
B8: PRT-608 (protein)
chain: B1 chain with T43A, N45D
B9: PRT-67 (protein)
chain: MANQEIRYSEVTPYHVTSVWTKGVTPPANFTQGEDVFHAPYVANQGWYDINKTFNGKDDLLCGAATAGNMLHWWFDQNKDQIKRYLEEHPEKQKINFNGEQMFDVKEAIDTKNHQLDSKLFEYFKEKAFPYLSTKHLGVFPDHVIDMFINGYRLSLTNHGPTPVKEGSKDPRGGIFDAVFTRGDQSKLLTSRHDFKEKNLKEISDLIKKELTEGKALGLSHTYANVRINHVINLWGADFDSNGNLKAIYVTDSDSNASIGMKKYFVGVNSAGKVAISAKEIKEDNIGAQVLGLFTLSTGQDSWNQTN
B10: PRT-68 (protein)
chain: B9 chain with N51T, A178D
B11: PRT-69 (protein)
chain: B9 chain with N51T, H114D
B12: PRT-70 (protein)
chain: B9 chain with N51T, D80E
B13: PRT-5 (protein)
chain: B9 chain with N51T, K83E, E87K, E88K, H114S, K246E, S302I
B14: PRT-71 (protein)
chain: MANQEIRYSEVTPYHVTSVWTKGVTPPANFTQGEDVFHAPYVANQGWYDITKTFNGKDDLLCGAATAGNMLHWWFDQNKEEIEAYLKKHPEKQKIMFGDQELLDVRKVINTKGSQTNSELFNYFRDKAFPGLSARRLGVMPDLVLDMFINGYYLNVYKTQTTDVNRTYQEKDKRGGIFDAVFTRGDQSKLLTSRHDFKEKNLKEISDLIKKELTEGKALGLSHTYANVRINHVINLWGADFDSNGNLKAIYVTDSDSNASIGMKKYFVGVNSAGKVAISAKEIKEDNIGAQVLGLFTLSTGQDIWNQTN
B15: PRT-72 (protein)
chain: B14 chain with N29K, E81Y, S114D, G131Y, Y157T, K173R
B16: PRT-73 (protein)
chain: B14 chain with E81K, G113D, S114D, Y157T, K173R, I304S
B17: PRT-74 (protein)
chain: B14 chain with Y14S, D59N, G113D, K173R, N201T
B18: PRT-75 (protein)
chain: B14 chain with N29K, E81K, G113D, S114D, Y153R, Y157T, R166E, E170T, E285D

Target: pooled human IgG

Q: For B1, which Enzyme Activity Endpoint Assay (purified): Fab′2 is on record?
A: 951 ng/µL

Q: And the Enzyme Activity Endpoint Assay (purified): Fc?
A: 507 ng/µL

Q: What about the Enzyme Activity Endpoint Assay (purified): IgG of the same protein?
A: 0 ng/µL

Q: And the Enzyme Activity Endpoint Assay (purified): scIgG?
A: 0 ng/µL

Q: With B2 as the protein, how does the Enzyme Activity Endpoint Assay (purified): Fab′2 read?
A: 755 ng/µL

Q: And the Enzyme Activity Endpoint Assay (purified): Fc?
A: 394 ng/µL

Q: And the Enzyme Activity Endpoint Assay (purified): IgG?
A: 0 ng/µL

Q: And the Enzyme Activity Endpoint Assay (purified): scIgG?
A: 0 ng/µL

Q: Which Enzyme Activity Endpoint Assay (purified): Fab′2 does the source give for B3 here?
A: 816 ng/µL

Q: And the Enzyme Activity Endpoint Assay (purified): Fc?
A: 414 ng/µL

Q: What about the Enzyme Activity Endpoint Assay (purified): IgG of the same protein?
A: 63 ng/µL

Q: And the Enzyme Activity Endpoint Assay (purified): scIgG?
A: 109 ng/µL

Q: For B4, which Enzyme Activity Endpoint Assay (purified): Fab′2 is on record?
A: 703 ng/µL

Q: And the Enzyme Activity Endpoint Assay (purified): Fc?
A: 399 ng/µL

Q: What about the Enzyme Activity Endpoint Assay (purified): IgG of the same protein?
A: 0 ng/µL

Q: And the Enzyme Activity Endpoint Assay (purified): scIgG?
A: 0 ng/µL

Q: How did the Enzyme Activity Endpoint Assay (purified): Fab′2 turn out when B5 was run?
A: 184 ng/µL

Q: What about the Enzyme Activity Endpoint Assay (purified): Fc of the same protein?
A: 337 ng/µL

Q: And the Enzyme Activity Endpoint Assay (purified): IgG?
A: 110 ng/µL

Q: What about the Enzyme Activity Endpoint Assay (purified): scIgG of the same protein?
A: 682 ng/µL

Q: Which results are given for B6?
A: Enzyme Activity Endpoint Assay (purified): Fab′2: 816 ng/µL; Enzyme Activity Endpoint Assay (purified): Fc: 389 ng/µL; Enzyme Activity Endpoint Assay (purified): IgG: 0 ng/µL; Enzyme Activity Endpoint Assay (purified): scIgG: 0 ng/µL

Q: Which results are given for B7?
A: Enzyme Activity Endpoint Assay (purified): Fab′2: 850 ng/µL; Enzyme Activity Endpoint Assay (purified): Fc: 464 ng/µL; Enzyme Activity Endpoint Assay (purified): IgG: 0 ng/µL; Enzyme Activity Endpoint Assay (purified): scIgG: 0 ng/µL

Q: For B8, which Enzyme Activity Endpoint Assay (purified): Fab′2 is on record?
A: 863 ng/µL

Q: And the Enzyme Activity Endpoint Assay (purified): Fc?
A: 484 ng/µL

Q: What about the Enzyme Activity Endpoint Assay (purified): IgG of the same protein?
A: 0 ng/µL

Q: And the Enzyme Activity Endpoint Assay (purified): scIgG?
A: 0 ng/µL

Q: B9 was tested. Which Enzyme Activity Endpoint Assay (purified): Fab′2 did it give?
A: 10 ng/µL

Q: And the Enzyme Activity Endpoint Assay (purified): Fc?
A: 78 ng/µL

Q: And the Enzyme Activity Endpoint Assay (purified): IgG?
A: 23 ng/µL

Q: And the Enzyme Activity Endpoint Assay (purified): scIgG?
A: 61 ng/µL

Q: Which Enzyme Activity Endpoint Assay (purified): Fab′2 does the source give for B10 here?
A: 51 ng/µL

Q: And the Enzyme Activity Endpoint Assay (purified): Fc?
A: 133 ng/µL

Q: And the Enzyme Activity Endpoint Assay (purified): IgG?
A: 16 ng/µL

Q: What about the Enzyme Activity Endpoint Assay (purified): scIgG of the same protein?
A: 16 ng/µL

Q: For B11, which Enzyme Activity Endpoint Assay (purified): Fab′2 is on record?
A: 45 ng/µL

Q: And the Enzyme Activity Endpoint Assay (purified): Fc?
A: 121 ng/µL

Q: And the Enzyme Activity Endpoint Assay (purified): IgG?
A: 14 ng/µL

Q: And the Enzyme Activity Endpoint Assay (purified): scIgG?
A: 14 ng/µL

Q: B12 was tested. Which Enzyme Activity Endpoint Assay (purified): Fab′2 did it give?
A: 47 ng/µL

Q: What about the Enzyme Activity Endpoint Assay (purified): Fc of the same protein?
A: 124 ng/µL

Q: What about the Enzyme Activity Endpoint Assay (purified): IgG of the same protein?
A: 14 ng/µL

Q: What about the Enzyme Activity Endpoint Assay (purified): scIgG of the same protein?
A: 14 ng/µL

Q: What does the source list for B13?
A: Enzyme Activity Endpoint Assay: Fab′2: 34 ng/µL; Enzyme Activity Endpoint Assay: Fc: 117 ng/µL; Enzyme Activity Endpoint Assay: IgG: 18 ng/µL; Enzyme Activity Endpoint Assay: scIgG: 34 ng/µL

Q: With B14 as the protein, how does the Enzyme Activity Endpoint Assay (purified): Fab′2 read?
A: 53 ng/µL

Q: And the Enzyme Activity Endpoint Assay (purified): Fc?
A: 126 ng/µL

Q: And the Enzyme Activity Endpoint Assay (purified): IgG?
A: 25 ng/µL

Q: And the Enzyme Activity Endpoint Assay (purified): scIgG?
A: 0 ng/µL

Q: With B15 as the protein, how does the Enzyme Activity Endpoint Assay (purified): Fab′2 read?
A: 41 ng/µL

Q: And the Enzyme Activity Endpoint Assay (purified): Fc?
A: 100 ng/µL

Q: What about the Enzyme Activity Endpoint Assay (purified): IgG of the same protein?
A: 14 ng/µL

Q: And the Enzyme Activity Endpoint Assay (purified): scIgG?
A: 8 ng/µL

Q: How did the Enzyme Activity Endpoint Assay (purified): Fab′2 turn out when B16 was run?
A: 52 ng/µL

Q: What about the Enzyme Activity Endpoint Assay (purified): Fc of the same protein?
A: 105 ng/µL

Q: And the Enzyme Activity Endpoint Assay (purified): IgG?
A: 28 ng/µL

Q: What about the Enzyme Activity Endpoint Assay (purified): scIgG of the same protein?
A: 5 ng/µL

Q: For B17, which Enzyme Activity Endpoint Assay (purified): Fab′2 is on record?
A: 26 ng/µL

Q: And the Enzyme Activity Endpoint Assay (purified): Fc?
A: 73 ng/µL

Q: And the Enzyme Activity Endpoint Assay (purified): IgG?
A: 23 ng/µL

Q: And the Enzyme Activity Endpoint Assay (purified): scIgG?
A: 27 ng/µL

Q: How did the Enzyme Activity Endpoint Assay (purified): Fab′2 turn out when B18 was run?
A: 12 ng/µL

Q: And the Enzyme Activity Endpoint Assay (purified): Fc?
A: 76 ng/µL

Q: And the Enzyme Activity Endpoint Assay (purified): IgG?
A: 8 ng/µL

Q: And the Enzyme Activity Endpoint Assay (purified): scIgG?
A: 54 ng/µL
